Patent US12344637B2, “Virus-inspired compositions and methods of redirecting preexisting immune responses using the same for treatment of cancer” (priority 2020, dated 2025)

What was measured:
MC38 cells [1] = experiment: OVA peptide loading in the presence of furin inhibitor; assay type: cell-based, murine; settings: IRC 2.5 μg/mL
Description: (Millipore-Sigma, St. Louis, MO). This furin inhibitor binds irreversibly to the catalytic site of furin, blocking all furin protease activity.
Briefly, 2×10^5 MC38 cells (murine colon adenocarcinoma, #ENH204-FP, Kerafast, Inc., Boston MA) were seeded in a FACs tube and then incubated with either 0.5 μM, […], or 50 μM furin inhibitor dissolved in DMSO at total final sample volume of 200 μL. Control samples containing no inhibitor were prepared the same way with the same volume equivalent of DMSO. The samples were incubated for fifteen minutes in a tissue culture incubator at 37° C., 5% CO2. Then, 2.5 μg/mL of OVA-conjugated MPV.10.34.d IRC was added to all samples and the samples were incubated in a tissue culture incubator at 37° C., 5% CO2. Samples were then washed twice with 2 to 3 mL FACS buffer and then stained with PE-conjugated-mouse anti-mouse MHC I bounded with OVA (SIINFEKL, SEQ ID NO:95) monoclonal antibody (Biolegend, Cat #141604, San Diego, CA) for 30 minutes at 4° C. Following this, samples were washed once with 3 mL FACS buffer then the cells were resuspended in 250 μL of FACS buffer before being analyzed by a CytoFLEX flow cytometer. (Beckman Coulter Life Sciences, Brea, CA, US).

[2] = HPV16 L1 deletion mutants; cited from earlier work
MC38 cells [3] = experiment: In vitro cell binding assay (flow cytometry), MC38; assay type: cell-based, murine; settings: MC38, 1 h 37° C.
Description: (§1) To assess whether IRC bind to tumor cells, an in vitro cell binding assay was conducted. Specifically, both MPV.10.34.d capsid backbones (unconjugated) as well as different conjugated IRC (human CMV pp65, murine E7, and murine OVA peptide) were examined.
(§2) Briefly, 2×10^5 MC38 cells (murine colon adenocarcinoma, #ENH204-FP Kerafast, Inc., Boston MA) or pgsA-745 cells (Chinese hamster ovary cell mutant deficient in xylosyltransferase (UDP-D-xylose:serine-1,3-D-xylosyltransferase, ATCC CRL-2242) in which heparin sulfate proteoglycan (HSPG) expression is knocked out, were seeded overnight. The next day, the cells were treated with human CMV pp65, murine HPV16 E7, and murine OVA peptide, as well as the MPV.10.34.d capsid backbone for one hour at 37° C. Cells were then washed twice with 2 to 3 mL of a fluorescence activated cell sorting (FACS) buffer (1% bovine serum albumin in PBS) and then stained with 1 mL of rabbit anti-musPsV serum antibodies for 30 minutes at 4° C. Following this, samples were washed once with 3 mL FACS buffer and stained with 0.5 mL of donkey anti-rabbit IgG-PE antibody (Biolegend, San Diego, CA) for 30 min at 4° C. in the dark. Finally, samples were washed once more with 3 mL FACS buffer and then resuspended in […] of FACS buffer before being analyzed by a CytoFLEX flow cytometer (Beckman Coulter Life Sciences, Brea, CA, US).

MCF7 = experiment: In vitro cytotoxicity assay with human CMV T cells, MCF7; assay type: cell-based; settings: MCF7, 2.5 μg/mL, E:T 10:1, 24 hrs
Description: (§3) In these experiments, CD8+ T cell responses to CMV peptides were tested in three different human tumor cell lines, including HCT116, OVCAR3, and MCF7. All three of these human tumor cell lines are HLA-A*0201 positive.
(§4) In Vitro Cytotoxicity Assays. […], human colon cancer cells, MCF7, human breast cancer cells, and OVCAR3, human ovarian cancer cells (all from ATCC, Manassas, VA, US) were seeded overnight at 0.01 to 0.2×10^6 per well per 100 μL per 96 well plate. The next day (about 20 to 22 hrs later), each cell line was incubated for one hour at 37° C. under the following conditions: (1) CMV peptide at a final concentration of 1 μg/mL (positive control), (2) MPV.10.34.d at a final concentration of 2.5 μg/mL (negative control), (3) CMV-conjugated MPV.10.34.d IRC at a final concentration of 2.5 μg/mL, (4) CMV-conjugated HPV16 IRC at a final concentration of 2.5 μg/mL, and (5) no antigen (negative control). After 1 hour, the cells were washed vigorously with 200 μL of media for three times to remove non-specific binding. […] Cell viability was measured after co-culturing. Cell viability was measured with CELLTITER-GLO® (Promega, Madison, WI, US). […] The amount of ATP generated from tumor cells was quantified according to manufacturer protocols.

pgsA-745 cells = experiment: In vitro cell binding assay (flow cytometry), HSPG knock-out cells; assay type: cell-based, Chinese hamster; settings: pgsA-745, 1 h 37° C.
Description: as §1, §2

ELISA of anti-MPV sera = assay type: binding, rabbits; settings: data not shown
Description: (§5) Antibodies against wild type MPV were generated as follows: New Zealand white rabbits (n=3) were administered three intra-muscular vaccinations of 50 μg of wild type mouse papillomavirus particles per dose. Rabbits were vaccinated at months 0, 1, and 2. After two weeks post final vaccination, rabbits were bled to obtain the anti-MPV sera. Antibodies against MPV.10.34.d IRC were obtained as follows: naïve 6 to 8 week old C57/BL6 mice (n=10) were injected systemically with two doses of 150 μg of E7-conjugated MPV.10.34.d over a period of 48 hours. After 48 hours, the mice were bled to obtain the anti-MPV.10.34.d IRC sera.
(§6) Specificity of anti-MPV.10.34.d IRC sera and anti-MPV sera to both MPV.10.34.d capsid backbone and MPV.10.34.d IRC was examined by ELISA. The assays were performed as described in Example 5 with the following differences: serum samples were tested at a 1:100 dilution factor and two-fold serial dilutions. Goat anti-mouse IgG-HRP secondary antibody was used in the ELISA (1:7000). Binding of anti-MPV.10.34.d IRC sera (FIG. 31) and anti-MPV scrum (data not shown) to both MPV.10.34.d capsid backbone (FIG. 31A) and MPV.10.34.d IRC (FIG. 31B) was observed.

[4] = tested on: MPV.A4 monoclonal antibody; experiment: ELISA with MPV.A4 conformational monoclonal antibody; assay type: binding
Description: The MPV.A4 antibody is a conformational antibody that specifically binds to MPV L1 in the form of T=1 or T=7 capsid backbone structure. This antibody will not bind to denatured or monomeric MPV L1. (Hafenstein et al., 2020, “Atomic Resolution CRYOEM structure of Mouse Papillomavirus,” International Papillomavirus Conference, Jul. 20-24, 2020). To determine whether MPV.10.34.d undergoing the steps in Example 1 or Example 4 yields a T=1 capsid backbone, ELISA was performed on these samples with the MPV.A4 monoclonal antibody.
Samples from Example 1 and Example 4 of equal concentrations (starting concentration of 1000 ng/well) were subjected to ELISA. To ensure that both soluble and refolded MPV.10.34.d were equally bound to the ELISA plate (Nunc Maxisorp, ThermoFisher Scientific, Waltham, MA, US), both samples were first buffer exchanged into either 50 mM NaPO4, 450 mM NaCl at pH 6 or pH 7. […] Based on this, a total of four sample conditions were two-fold serially diluted and subjected to ELISA with the MPV.A4 monoclonal antibody.
Briefly, eight different amounts of protein (7.8 ng to 1 μg) for each sample under both pH conditions (into either 50 mM NaPO4, 450 mM NaCl at pH 6 or pH 7) were first added to the ELISA plate and the plate was stored at 4° C. […] The absorbance of the sample plates were read at 450 nm and 620 nm with a plate reader (BioTek, Winooski, VT, US).

[5] = ELISA of anti-MPV.10.34.d IRC sera; assay type: binding, mice; settings: serum from 1:100, two-fold dilutions
Description: as §5, §6

OVCAR3 = experiment: In vitro cytotoxicity assay with human CMV T cells, OVCAR3; assay type: cell-based; settings: OVCAR3, 2.5 μg/mL, E:T 10:1, 24 hrs
Description: as §3, §4

[6] = Transmission electron microscopy (TEM) size and structure; assay type: physicochemical; settings: purified refolded capsid backbone
Description: TEM analysis was also employed to obtain further visual confirmation of the structure and size of the refolded proteins. Samples (10 μL) were adsorbed to glow discharged (EMS GloQube) carbon coated 400 mesh copper grids (EMS), by floatation for 2 min. Grids were quickly blotted and then rinsed in 3 drops (1 min each) of TBS. Grids were negatively stained in 2 consecutive drops of 1% uranyl acetate with tylose (1% UAT, double filtered, 0.22 μm filter), blotted then quickly aspirated to obtain a thin layer of stain covering the sample. Grids were imaged on a Phillips CM-120 TEM operating at 80 kV with an AMT XR80 CCD (8 megapixel).

HCT116 = experiment: In vitro cytotoxicity assay with human CMV T cells, HCT116; assay type: cell-based; settings: HCT116, 2.5 μg/mL, E:T 10:1, 24 hrs
Description: as §3, §4

## decanoyl-RVKR-CMKa [furin inhibitor, reference compound]
MC38 cells [1]; furin inhibitor 0.5 μM
  OVA peptide loading: prevents OVA-conjugated MPV.10.34.d IRCs from loading OVA epitopes
MC38 cells [1]; furin inhibitor 5 μM
  OVA peptide loading: prevents OVA-conjugated MPV.10.34.d IRCs from loading OVA epitopes
MC38 cells [1]; furin inhibitor 50 μM
  OVA peptide loading: prevents OVA-conjugated MPV.10.34.d IRCs from loading OVA epitopes

## ΔN = 0: HPV16 L1 protein without N-terminal deletion (Chen et al., 2000)
[2]
  Apparent Diameter of Assembled Particle (Å): 600 Å

B1: MPV.10.34.d capsid backbone (protein)
chain: MLYLPPTTPVAKVQSTDEYVYPTSLFCHAHTDRLLTVGHPFFSVIDNDKVTVPKVSGNQYRVFRLKFPDPNKFALPQKDFYDPEKERLVWRLRGLEIGRGGPLGIGTTGHPLFNKLGDTENPNKYQQGSKDNRQNTSMDPKQTQLFIVGCEPPTGEHWDVAKPCGALEKGDCPPIQLVNSVIEDGDMCDIGFGNMNFKELQQDRSGVPLDIVSTRCKWPDFLKMTNEAYGDKMFFFGRREQVYARHFFTRNGSVGEPIPNSVSPSDFYYAPDSTQDQKTLAPSVYFGTPSGSLVSSDGQLFNRPFWLQRAQGNNNGVCWHNELFVTVVDNTRNTNFTISQQTNTPNPDTYDSTNFKNYLRHVEQFELSLIAQLCKVPLDPGVLAHINTMNPTILENWNLGFVPPKEREDPYKGLIFWEVDLTERFSQDLDQFALGRKFLYQ
MC38 cells [3]
  binding to tumor cells (peak shift): exhibited specificity for tumor cells
MCF7
  redirection of CMV pp65-specific CD8+ T-cells to kill tumor cells: no background tumor killing
pgsA-745 cells
  binding to cells lacking HSPG expression: no binding
ELISA of anti-MPV sera
  binding of anti-MPV serum (ELISA): Binding
[4]; refolded from IBs (Example 1)
  recognition by MPV.A4 conformational monoclonal antibody: recognized
[4]; soluble (Example 4), pH 6 or pH 7
  recognition by MPV.A4 conformational monoclonal antibody: recognized
[5]
  binding of anti-MPV.10.34.d IRC sera (ELISA): Binding
[5]; listed as MPV.10.34.d capsid backbones
  binding of anti-MPV.10.34.d IRC sera (ELISA): specifically recognize and bind
OVCAR3
  redirection of CMV pp65-specific CD8+ T-cells to kill tumor cells: no background tumor killing
[6]
  diameter (TEM): ~30 nm
HCT116
  redirection of CMV pp65-specific CD8+ T-cells to kill tumor cells: no background tumor killing
